# PMC8395316 (2021)
# B1: Platelet Factor 4 (protein)
# chain: SQVRPRHITSLEVIKAGPHCPTAQLIATLKNGRKICLDLQAPLYKKIIKKLLES
# Biological target: Spike-RBD RBD (Severe acute respiratory syndrome …, UniProt P0DTC2)
# Test: ELISA
binder,measurement,value
B1,Kd,~180 nM
